Results as given in patent publication US20220162259A1, “PEPTIDE COMPLEX AND PRODUCTION METHOD THEREFOR, AND USE OF SAID PEPTIDE COMPLEX” (KANEKA CORPORATION, priority 2019, published 2022).
Numbered stars: 1 amine (or outer) side, 2 acyl side, 3 side chain; on linkers, the order of the positions; unused ones are H or OH. Bridge positions count the residues as written; N and C are the ends. Square brackets hold non-standard residues; d marks the D form. Ends that are not written are not given here. Peptide text beside a SMILES is read from it. * marks the point of attachment. X1 = NC(N)=NCCNC(=O)CCOCC(COCCC(=O)NCCN=C(N)N)(COCCC(=O)NCCN=C(N)N)NC(=O)CON=C(C[*:1])C[*:2]; FITC = O=C1OC2(c3ccc(O)cc3Oc3cc(O)ccc32)c2ccc(NC(=S)*)cc21; Ahx = NCCCCCC(=O)O

Test system: HeLa cells
Test: Evaluation of cell-membrane permeability (flow cytometry of FITC-labelled peptide complexes)
Format: cell-based, Human
Details: for Mode of fluorescence intensity, 0 hour of culture / Mode of fluorescence intensity, 1 hour of culture: 2 μM peptide complex, flow cytometer; for Mode of fluorescence intensity, 0 hour of culture: living (propidium iodide-negative) cells; for Mode of fluorescence intensity, 1 hour of culture: 37° C., 5% CO2, living (propidium iodide-negative) cells; for Level of cell-membrane permeation compared with Comparative Example 1: at 1 hour of culture, versus peptide complex of Comparative Example 1
Procedure: HeLa cells (Human cervix adenocarcinoma cells) were cultured for 1 hour in a cell culture containing 2 μM of the peptide complex synthesized in Example 1 or 2 or Comparative Example 1 under conditions of 5% (v/v) CO2 and 37° C. For culturing the HeLa cells, FluoroBrite D-MEM (obtained from ThermoFisher Co.) (supplemented with 10% (v/v) FCS (fetal calf serum) and 10% (v/v) GlutaMax (obtained from ThermoFisher Co.)) was used.
Next, the surfaces of the cells were washed with D-PBS (−) (supplemented with heparin (20 units/mL)), followed by recovery of the cells. The cells were suspended in D-PBS(−) (supplemented with 0.5% (v/v) BSA (bovine serum albumin), 200 mM EDTA (ethylenediaminetetraacetic acid), and 0.2% (v/v) propidium iodide (obtained from Sigma-Aldrich Co.)). A flow cytometer (BD FACS AriaIII) was used to measure fluorescence intensity. Upon flow cytometry analysis, the mode of fluorescence intensity was calculated for a population of living cells excluding dead cells that were propidium iodide-positive. As a control, dimethyl sulfoxide (DMSO) not containing the peptide complex was tested in the same manner.

Compound | Mode of fluorescence intensity, 0 hour of culture | Mode of fluorescence intensity, 1 hour of culture | Level of cell-membrane permeation compared with Comparative Example 1
CC[C@H](C)[C@@H]1NC(=O)[C@H](Cc2ccc(O)cc2)NC(=O)[C@H](CC(C)C)NC(=O)[C@H](CCSC)NC(=O)[C@@H](NC(=O)CCCCCNC(=S)Nc2ccc3c(c2)C(=O)OC32c3ccc(O)cc3Oc3cc(O)ccc32)CSCC(=NOCC(=O)NC(COCCC(=O)NCCN=C(N)N)(COCCC(=O)NCCN=C(N)N)COCCC(=O)NCCN=C(N)N)CSC[C@@H](C(N)=O)NC(=O)CNC(=O)[C@H](C(C)C)NC(=O)[C@H](CO)NC(=O)[C@H](Cc2ccccc2)NC(=O)[C@H](Cc2ccc(O)cc2)NC(=O)[C@@H]2CCCN2C(=O)[C@H](C(C)C)NC1=O [Comparative Example 1, reference compound] ({FITC-Ahx}-CMLYIVPYFSVGC-NH2; linker 1-13 via X1) | 66.6 | 412 | –
Example 1: FITC-labelled cyclic peptide CMLYIVPYFSVGC with cell-membrane-permeability-imparting group G6 (two dendritic units, six guanidino groups) bound by oxime ligation ([Ahx]CMLYIVPYFSVGC-NH2; not fully specified (bridges); numbers in words are those of the source; also: cyclic, mode not given here, FITC label, place not given here, G6 guanidino dendron bound by oxime ligation, place not given here) | 60 | 730 | higher levels of cell-membrane permeation
Example 2: FITC-labelled cyclic peptide CMLYIVPYFSVGC with cell-membrane-permeability-imparting group G9 (three dendritic units, nine guanidino groups) bound by oxime ligation (not fully specified (N-terminus, C-terminus, bridges); also: cyclic, mode not given here, FITC label, place not given here, G9 guanidino dendron bound by oxime ligation, place not given here) | 65.8 | 877 | higher levels of cell-membrane permeation
